# Measurements as given in the DeepSol protein solubility set.
# Assay: soluble on expression in E. coli; label from the status in PepcDB or PDB records
row,Sequence,soluble on expression in E. coli
1,EKDSVLRHNINKLGLTSIAVEPVAAWKLNDRHSFGAGIIAQHTSAELRKYADWGIKSKAEILTAKPPKPNGVAEAAKIQADGHADVKGSDWGFGYQLAWMWDINDRARVGVNYRSKVSHTLKGDAEWAADGAAAKAMWSTMLAANGYTANEKARVKIVTPESLSVHGMYKVSDKADLFGDVTWTRHSRFDKAELVFEKEKTVVKGKSDRTTITPNWRNTYKVGFGGSYQISEPLQLRAGIAFDKSPVRNADYRMNSLPDGNRIWFSAGMKYHIGKNHVVDAAYTHIHINDTSYRTAKASGNDVDSKGASSARFKNHADIIGLQYTYKFK,not soluble
2,EKGLEIAQERKARDEGWGDSIATMEMILKNAQGESSTRLMRLKSLEVEGDGDKGLTIFDQPRDVTGTAFLNHSHTIGADDQWLYLPALKRVKRISSRNKSGPFMGSEFAYEDLSSFEIEKYRFNHLKDEKFNGQDVFVLEQIPTDKNSGYTKQVVWLDKAHYRPLKVEFYDRKGALLKTLTFANYKQYLDKYWRAHTMAMTNHQTGKSTELNTSDLRFQTGLEENDFNKNVLKR,soluble
3,EKTEQEQILIPVANPDTIEDLINLALVIRDTKQKKELIALNVINDNNNSENKELQGKRNLEKAAMIAASADVSVNMVSRYDLNIASGIIHTIKEYDATDVVIGLHRKANIVDSFFGNLAESLLKGTHREVIIAKFLMPVN,not soluble
4,ELAAIQNLGGMDVLCTDKTGTITEDRVVLVQHLNPLGDLSDEVLNLAYLNSSYQTGWKNLMDIAVINFYEEHQWKTPFKNVTKIDEIPFDFSRRRLTVVVNADDHQLMITKGAVEEMEEVCTHAQINGEIVPLSTAVREELRRVNVQMNKQGMRVLAVAVKKDVHKEAVYSVEDEKEMTLIGFMGFLDP,not soluble
5,ELALWSPEVKIVELVKDCKGLGFSILDYQDPLDPTRSVIVIRSLVADGVAERSGGLLPGDRLVSVNEYCLDNTSLAEAVEILKAVPPGLVHLGIC,soluble
6,ELIRVGVVGTGYMGENHVRIYSEMEDVRLIGISDPNSSRVKELAARYETLPFSDHKKMFGKTNLDAISIAAPTTLHCPIVLDALEAGVDVLVEKPIADSVENATAMIESAEEMDRHLMVGHIERFNPAVLKLKEVVDSGVLGKIVSV,not soluble
7,ELKAKILHIPGDELINHNNQILEEYDHSQNTLIVGPNHVNSNIIHALTASEDTLFYKHNGIMPKALLRAMLQDITNSNQSSGGSTITQQLVKNQVLSNKKTYSRKANEIILATRVENLLSKDEIIYTYLNIVPFGHDYNGANITGISSASYSLFGIPAKDLNIAQSAYLIGLLQSPYGY,not soluble
8,EQTQNLYIEGDNLDAMKLLKKSYAGKVDVIYIDPPYNTGKDFIFNDTFALSQEESDEKQGRYNEEGQRLFQNTEANGKFHSDWCSMMYARLMLARTLLNDNGIIFISIDDHELANLIKIGNEVFNASNFIDVFNWAKTETPENLSKKSKQIIEYIVCYQKKKNDMKFQGLKKESVSSNGLLNQPNSVGILTFPANKVVTSIPDGVIKAGMYGTDAYDVELLEDTTVRGGLFTAPVKLKAKFKWSQANLDKEIQKGTTIKIPTLKLSPSYEKLEYDPEVPPNLINYKVGVETNEQAGNHQLQFFDKKVFNFPKPVSLIQYLCEFIDTKNKDCIVMDFFSGSGTTAEAVMRMNMKPRKNKVKYILVQLPEDVTETIKKAKTPSEKEIMQNAIDFLTENHKALNICELSKERIRRAGDTIEAECNQRKSKDLPDIGFRVFRIADSNMKDVYYSAK,not soluble
9,ESSDHLRLVAWYIPVKNSKRTVVLAHGFAGNKGLMGAWAGMYHELGYNVLVPDSRASGASQGKAVGYGWLERRDDLQWAKTVVHKTATTQIVMSGISMGAAGMTMASGERQLPQIKAYVVDSPFTSADAIISYQAGQLYHLPAFPLVNVTSLITKLRAGYSFKEADAVAQIRKNHLPIMIISGTRDDFVPTSMGKTLYRNAHQPKSLWLVKGAGHTTAITQNYQRYKRHVTAFLEQYVQ,not soluble
10,ESYAIFSLNAQFDALTINKARKLYRGKTRLLQGQRIELSDWPETSVERTEFYRYLLNKNLAQMNAHWASLSFSGKARPPKVIDQPSIEILLAWMREQPNRIGYAPVDSLPSDAHVLYVV,not soluble
11,ETEPGHALVIWHDSTNEYYTMQQLTLAYEESRLLFEKAPQGIAMLDPSGEIVMANRSFGDLVGTTPVRLLGRNLEDFGVEEGTMEYVTPVLSDPEAVVHLDRSLETLRGKQKNVAMSFSSMGNVG,not soluble
12,ETEQSVDLETVSVVGKSRPRATSGLLHTSTASDKIISGDTLRQKAVNLGDALDGVPGIHASQYGGGASAPVIRGQTGRRIKVLNHHGETGDMADFSPDHAIMVDTALSQQVEILR,not soluble
13,ETISAFSNQVIQRGATGDDVVELQARLQYNGYYNGKIDGVYGWGTYWAVRNFQDQFGLKEVDGLVGAKTKQTLICKSKYYREYVMEQLNKGNTFTHYGKIPLKYQTKPSKAATQKARQQAEARQKQPAEKTTQKPKANANKQQNNTPAKARKQDAVAANMPGGFSNNDIRLLAQAVYGEARGEPYEGQVAIAAVILNRLNSPLFPNSVAGVIFEPLAFTAVADGQIYMQPNETAREAVLDAINGWDPSEEALYYFNPDTATSPWIWGRPQIKRIGKHIFCE,not soluble
14,EVKGIGEYKILGESIDDAAGEAFDKTAKLMGLDYPGGPLLSKLAEKGTPGRFKFPRPMTNVPGLDMSFSGLKTFTANTIAANGDDEQTRADIAYAFEEAVCATLAIKCKRALEQTGMKRIVIAGGVSANRRLRAELEKLAKKIGGEVYYPRTEFCTDNGAMIAYAGMQRLKNGEVADMSVEARPRWPIDQLTPIA,not soluble
15,EVKLEESGGGLVQPGGSMKLSCAASGFTFSDAWMDWVRQSPEKGLEWVAEIRSKVNNHAIHYAESVKGRFTVSRDDSKSSVYLQMNSLRAEDTGIYYCSGWSFLYWGQGTLVTVSAAKTTPPSVYPLAPGSAAQTNSMVTLGCLVKGYFPEPVTVTWNSGSLSSGVHTFPAVLQSDLYTLSSSVTVPSSTWPSETVTCNVAHPASSTKVDKKIVPRD,soluble
16,EVQLLEESGPGLVQPSQSLSITCTVSGFSLTSYGVHWVRQSPGKGLEWLGVIWSGGSTDYNAAFISRLSISKDNSKSQVFFKMNSLQADDTAIYYCARNRGYSYAMDSWGQGTSVTVSSAKTTPPSVYPLAPGSAAQTNSMVTLGCLVKGYFPEPVTVTWNSGSLSSGVHTFPAVLQSDLYTLSSSVTVPSSTWPSETVTCNVAHPASSTKVDKKIVPRDCTS,soluble

row,Sequence,soluble on expression in E. coli
1,EVVPLAFTKAATQPAPGVKPYNALQVAGRDIYIREGCYNCHSQMIRPFRAETERYGHYSVAGESVYDHPFQWGSKRTGPDLARVGGRYSDEWHRIHLLNPRDVVPESNMPAFPWLARNKVDVDATVANMKALRKVGTPYSDEEIAKAPEALANKSELDAVVAYLQGLGLALKNVR,not soluble
2,FAPLEADHPGRSGLLALLDNPDAYAARALSARMAGRSLDLMYYIWRTDLTGWLLIEELLAAADRGVRVRLLLDDVNVQGFDRAFLALNQHPNVEVRLFNPIRNRGHVLRRTLEMLLGLSRFNRRMHNKAWIADGRLAIVGGRNIGDTYYDAEESGLAMSRDADVMLAGPVVAEVEGLFDSYWNLGLALPILTLWPE,not soluble
3,FCYSFCKNYANEIKKIITDFIEHNKINFQNEIENAFITSVIIVHTGIDAFSISLLI,not soluble
4,FDAVPDLIAILDTEYRIVRANRAMAARLGITPEECVGLTCYRVIHGTDEPPSFCPYRQLLKDGIEHTEEVREDSLGGDFILSVLPLHDSKGKIIGCTHFARDIN,not soluble
5,FDFKAGEEVLARWTDCRYYPAKIEAINKEGTFTVQFYDGVIRCLKRMHIKAMPEDAKGQDWIALVKA,soluble
6,FEAQKAKANKAVDGGGGSLVPRGSGGGGSERHFVYQFMGECYFTNGTQRIRYVTRYIYNREEYVRYDSDVGEHRAVTELGRPDAEYWNSQPEILERTRAELDTVCRHNYEGPETHTSLRRLEQPNVVISLSRTEALNHHNTLVCSVTDFYPAKIKVRWFRNGQEETVGVSSTQLIRNGDWTFQVLVMLEMTPRRGEVYTCHVEHPSLKSPITVEWKA,soluble
7,FFETIHPDDRERIRSEIETAGDSGEPNSVEFRFVEPDGTVVWVVGQAVPVTDDEGNLTERVVGIATDITDLKQR,not soluble
8,FLEVNYYSRVLGMNRVMNVLLPEESDHNPNWTNDSLKDLPVLYLLHGMSGNHFDWQRKSDIERLLRQTKLAVIMPAADLAWYTNTDYGMNYFDAISQELPRKVASLFPQISTKRKKHFVAGMSMGGYGAFKLAFSSSYFSYAASLSGTLISSLNYPGFLDMEKQAYWKGIFGDLDKFSGSKNDIFELAKRQSNTGIELPKLYAWVGQQDFFYGANEKAIPRLRKMGYDVSYETNPGDHEWYYWSKYIENILQWLPINYQAEKRLS,not soluble
9,FSDIASLQRFIKLNQSDWLFEMLATERFTSYFQPIVSIKDTSQIFGYESLLRGLDEEGNLMLPTPIMELATEAGLIPQLDQIARLSAITEFSRYKVSGHIFINFAPTSLYDPAFCLSSSVEAIDTAEISHDRVVFEVVESDNPQDLTHLKAVLKYYRDAGFLVALDDLGSGYSSLNLLHQLRPDFIKLDMELIRDVHQDLYKASITEKLLEITQKLNIQTVAEGIECIEELNWLRERGANLAQGYLIAKP,not soluble
10,FSDTLEESSPIAAIFDTENLEKISITEGIERGIVDSITGQRLLEAQACTGGIIHPTTGQKLSLQDAVSQGVIDQDMATRLKPAQKAFIGFEGVKGKKKMSAAEAVKEKWLPYEAGQRFLEFQYLTGGLVDPEVHGRISTEEAIRKGFIDGRAAQRLQDTSSYAKILTCPKTKLKISYKDAINRSMVEDITGLRLLEAASVSSKGLPSPYNMSSA,soluble
11,FTEYGAEYKIEVGILKDVVTLTLDTSGEGLHKRGYRENSGGAPIKETLAAAMVLLSDWNPDIELADPMCGSGTIAIEAALIGKNIAPGLKRRFVSEEWDIIPKDLWSDLRKHARNSINDKEFNILCSDIDGWVIKTARANAKKAGVDKYISFQKLPMQDFSSKRKGGFIITNPPYGERLGEVKEVEKLYKDMGRVFKALDKWSYFIITAHEKFEDCFGRKSNKNRKLYNGKLKCYYYQYFGDRK,not soluble
12,FTSPAVKRLLGWKQGDEEEKWAEKAVDALVKKLKKKKGAMEELEKALSCPGQPSNCVTIPRSLDGRLQVSHRKGLPHVIYCRVWRWPDLQSHHELKPLECCEFPFGSKQKEVCINPYHYKRVES,soluble
13,FVKSGWLLRQSTILKRWKKNWFDLWSDGHLIYYDDQTRQSIEDKVHMPVDCINIRTGHECRDIQPPDGKPRDCLLQIVCRDGKTISLCAESTDDCLAWKFTLQDSRT,soluble
14,GAEPVDEEAPLLMKNQKDFSSYLMGRQSIYKRHIIEDFVRKMLPGISEHKAASINNAVYSNFVREYKMLVKPEVSKKNYSRDVPFPDIELSLLPGAKEILEKSRNANSRVILISNRGHGDLENEINHLGMMHYFDVVSGAEEVTLEKSHLPPSQMPEDLQKRLINSLNGSDEEALRATLSEAAIYAHPDSTTIERIDKKPDSTRLAESLERLSVQPNVPITSYGDQPSDIKQLKSVAEPKSRVLKGVIVNAQRDDVGREIDVDGVPTRVVSKITEL,not soluble
15,GAMAQKNEDECAVCRDGGELICCDGCPRAFHLACLSPPLREIPSGTWRCSSCLQATVQEVQPRAEE,soluble
16,GAMAQVPTDPGYFSVLLDVKHFSPEEISVKVVGDHVEVHARHEERPDEHGFIAREFHRRYRLPPGVDPAAVTSALSPEGVLSIQATPASAQASLPSPPAAK,soluble
